B1: TSPAN10 (parent)
chain: EGCGPPLRRWLRANLAASGGYAIA

Variants of: B1
Experiment: protein stability index of a GFP-peptide fusion (GPS, HEK-293T) (PSI 1-6); higher = more stable
Settings: c terminus: a fixed tail appended
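Note: lentivirally expressed fusions sorted by FACS into six bins by GFP to DsRed ratio, PSI derived from sequencing read proportions per bin multiplied by bin number.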

Row | Variant | protein stability index
1 | EGCGPPLCRWLRANLAASGGYAIA | 1.53
2 | EGCGPPLDRWLRANLAASGGYAIA | 1.47
3 | EGCGPPLARWLRANLAASGGYAIA | 1.04
4 | EGCGPPLERWLRANLAASGGYAIA | 1.26
5 | EGCEPPLRRWLRANLAASGGYAIA | 1.98
6 | EGCTPPLRRWLRANLAASGGYAIA | 2.5
7 | EGCAPPLRRWLRANLAASGGYAIA | 1.54
8 | EGCDPPLRRWLRANLAASGGYAIA | 2.1
9 | EGCVPPLRRWLRANLAASGGYAIA | 2.25
10 | EGCCPPLRRWLRANLAASGGYAIA | 1.32
11 | EGCHPPLRRWLRANLAASGGYAIA | 2.58
12 | EGCMPPLRRWLRANLAASGGYAIA | 1.83
13 | EGCSPPLRRWLRANLAASGGYAIA | 2.09
14 | EGCQPPLRRWLRANLAASGGYAIA | 2
15 | EGCRPPLRRWLRANLAASGGYAIA | 2.44
16 | EGCLPPLRRWLRANLAASGGYAIA | 1.58
17 | EGCYPPLRRWLRANLAASGGYAIA | 1.83
18 | EGCPPPLRRWLRANLAASGGYAIA | 2.04
19 | EGCFPPLRRWLRANLAASGGYAIA | 1.27
20 | EGCIPPLRRWLRANLAASGGYAIA | 2.28
21 | EGCWPPLRRWLRANLAASGGYAIA | 2.15
22 | EGCNPPLRRWLRANLAASGGYAIA | 2.06
23 | EGCKPPLRRWLRANLAASGGYAIA | 2.31
24 | EGCGPSLRRWLRANLAASGGYAIA | 1.72

Row | Variant | protein stability index
25 | EGCGPDLRRWLRANLAASGGYAIA | 1.94
26 | EGCGPQLRRWLRANLAASGGYAIA | 1.89
27 | EGCGPHLRRWLRANLAASGGYAIA | 1.62
28 | EGCGPNLRRWLRANLAASGGYAIA | 2.29
29 | EGCGPWLRRWLRANLAASGGYAIA | 1.5
30 | EGCGPKLRRWLRANLAASGGYAIA | 1.97
31 | EGCGPLLRRWLRANLAASGGYAIA | 1.03
32 | EGCGPVLRRWLRANLAASGGYAIA | 1.89
33 | EGCGPYLRRWLRANLAASGGYAIA | 1.62
34 | EGCGPGLRRWLRANLAASGGYAIA | 1.86
35 | EGCGPTLRRWLRANLAASGGYAIA | 2.46
36 | EGCGPELRRWLRANLAASGGYAIA | 1.48
37 | EGCGPMLRRWLRANLAASGGYAIA | 1.84
38 | EGCGPRLRRWLRANLAASGGYAIA | 1.95
39 | EGCGPALRRWLRANLAASGGYAIA | 2.2
40 | EGCGPPDRRWLRANLAASGGYAIA | 2.33
41 | EGCGPPPRRWLRANLAASGGYAIA | 2.27
42 | EGCGPPERRWLRANLAASGGYAIA | 1.78
43 | EGCGPPNRRWLRANLAASGGYAIA | 2.67
44 | EGCGPPSRRWLRANLAASGGYAIA | 2.29
45 | EGCGPPWRRWLRANLAASGGYAIA | 2.05
46 | EGCGPPRRRWLRANLAASGGYAIA | 3.1
47 | EGCGPPARRWLRANLAASGGYAIA | 1.91
48 | EGCGPPVRRWLRANLAASGGYAIA | 2.3

Row | Variant | protein stability index
49 | EGCGPPCRRWLRANLAASGGYAIA | 1.87
50 | EGCGPPKRRWLRANLAASGGYAIA | 1.97
51 | EGCGPPQRRWLRANLAASGGYAIA | 1.36
52 | EGCGPPIRRWLRANLAASGGYAIA | 1.39
53 | EGCGPPMRRWLRANLAASGGYAIA | 2.39
54 | EGCGPPYRRWLRANLAASGGYAIA | 2
55 | EGCGPPHRRWLRANLAASGGYAIA | 2.39
56 | EGCGPPTRRWLRANLAASGGYAIA | 2.97
57 | EGCGPPGRRWLRANLAASGGYAIA | 1.82
58 | EGCGPPFRRWLRANLAASGGYAIA | 1.4
59 | EYCGPPLRRWLRANLAASGGYAIA | 1.69
60 | EVCGPPLRRWLRANLAASGGYAIA | 1.53
61 | EWCGPPLRRWLRANLAASGGYAIA | 2
62 | EGCGQPLRRWLRANLAASGGYAIA | 1.79
63 | EGCGSPLRRWLRANLAASGGYAIA | 1.44
64 | EGCGKPLRRWLRANLAASGGYAIA | 2.03
65 | EGCGAPLRRWLRANLAASGGYAIA | 2.08
66 | EGCGCPLRRWLRANLAASGGYAIA | 3.5
67 | EGCGYPLRRWLRANLAASGGYAIA | 1.6
68 | EGCGMPLRRWLRANLAASGGYAIA | 1.65
69 | EGCGVPLRRWLRANLAASGGYAIA | 2.15
70 | EGCGEPLRRWLRANLAASGGYAIA | 3.75
71 | EGCGFPLRRWLRANLAASGGYAIA | 2.73
72 | EGCGDPLRRWLRANLAASGGYAIA | 2.38

Row | Variant | protein stability index
73 | EGCGTPLRRWLRANLAASGGYAIA | 2.05
74 | EGCGGPLRRWLRANLAASGGYAIA | 2.08
75 | EGCGRPLRRWLRANLAASGGYAIA | 2.48
76 | EGCGHPLRRWLRANLAASGGYAIA | 1.7
77 | EGCGNPLRRWLRANLAASGGYAIA | 2.02
78 | EGRGPPLRRWLRANLAASGGYAIA | 1.4
79 | EGFGPPLRRWLRANLAASGGYAIA | 1.61
80 | EGPGPPLRRWLRANLAASGGYAIA | 2.25
81 | EGVGPPLRRWLRANLAASGGYAIA | 1.76
82 | EGMGPPLRRWLRANLAASGGYAIA | 1.78
83 | EGWGPPLRRWLRANLAASGGYAIA | 1.72
84 | EGSGPPLRRWLRANLAASGGYAIA | 2.45
85 | EGQGPPLRRWLRANLAASGGYAIA | 3.09
86 | EGIGPPLRRWLRANLAASGGYAIA | 2.83
87 | EGTGPPLRRWLRANLAASGGYAIA | 1.7
88 | EGEGPPLRRWLRANLAASGGYAIA | 2.82
89 | EGDGPPLRRWLRANLAASGGYAIA | 2.37
90 | EGGGPPLRRWLRANLAASGGYAIA | 2.11
91 | EGKGPPLRRWLRANLAASGGYAIA | 1.93
92 | EGLGPPLRRWLRANLAASGGYAIA | 2.65
93 | EGAGPPLRRWLRANLAASGGYAIA | 2.3
94 | EGHGPPLRRWLRANLAASGGYAIA | 2.62
